Substrate in series [1]: C/C(=C\CNc1ncnc2c1ncn2[C@@H]1O[C@H](COP(=O)(O)O)[C@@H](O)[C@H]1O)CO
The series can be described thus: purified protein. The series is classed as biochemical, Chlorella variabilis. The conditions noted are these: 50 mM Tris, 1 mM MgCl2, 1 mM DTT, pH 7, 30 °C.

Substrate in series [2]: CC(C)=CCNc1ncnc2c1ncn2[C@@H]1O[C@H](COP(=O)(O)O)[C@@H](O)[C@H]1O
The series is described as follows: purified protein. Format: biochemical, Chlorella variabilis. The conditions noted are these: 50 mM Tris, 1 mM MgCl2, 1 mM DTT, pH 7, 30 °C.

The source of these data is article PMC7891180, “Exploring the Role of a Cytokinin-Activating Enzyme LONELY GUY in Unicellular Microalga Chlorella variabilis” (Frontiers in Plant Science, 2021).

B1: CvarLOG1 (Chlorella variabilis) (protein)
chain: MADSQPASFRKIAVFCGASSGSNPLYIEAARLLGAEMARRGIGLVYGGGNVGLMGAVAEAVGSRLGPDQVIGVIPAALEPREISGTTVGEIRVVGSMHERKAMMFEEADAFIMIPGGYGTLDETLEITTWQQLGFHTKPVGLLNINGFFNKLLAFLDHATQEGFIRPSSRAILVSGDTPGELIDTLAAYQAPPSLLRLASEGKLGVHERG
notes: native protein 211 residues
As to B1, the values for the Km in series [1] and in series [2] were 133.5 µM and 54.99 µM, respectively.
